The text below walks through data of patent US12458618B2, “Compounds and methods for the detection of TRPV-6 cancers and drug delivery” (Soricimed Biopharma Inc., priority 2009, dated 2025).

Data set [1] deals with T1, TRPV6 (Homo sapiens, UniProt Q9H1D0).
T1 sequence (Q9H1D0 1-765): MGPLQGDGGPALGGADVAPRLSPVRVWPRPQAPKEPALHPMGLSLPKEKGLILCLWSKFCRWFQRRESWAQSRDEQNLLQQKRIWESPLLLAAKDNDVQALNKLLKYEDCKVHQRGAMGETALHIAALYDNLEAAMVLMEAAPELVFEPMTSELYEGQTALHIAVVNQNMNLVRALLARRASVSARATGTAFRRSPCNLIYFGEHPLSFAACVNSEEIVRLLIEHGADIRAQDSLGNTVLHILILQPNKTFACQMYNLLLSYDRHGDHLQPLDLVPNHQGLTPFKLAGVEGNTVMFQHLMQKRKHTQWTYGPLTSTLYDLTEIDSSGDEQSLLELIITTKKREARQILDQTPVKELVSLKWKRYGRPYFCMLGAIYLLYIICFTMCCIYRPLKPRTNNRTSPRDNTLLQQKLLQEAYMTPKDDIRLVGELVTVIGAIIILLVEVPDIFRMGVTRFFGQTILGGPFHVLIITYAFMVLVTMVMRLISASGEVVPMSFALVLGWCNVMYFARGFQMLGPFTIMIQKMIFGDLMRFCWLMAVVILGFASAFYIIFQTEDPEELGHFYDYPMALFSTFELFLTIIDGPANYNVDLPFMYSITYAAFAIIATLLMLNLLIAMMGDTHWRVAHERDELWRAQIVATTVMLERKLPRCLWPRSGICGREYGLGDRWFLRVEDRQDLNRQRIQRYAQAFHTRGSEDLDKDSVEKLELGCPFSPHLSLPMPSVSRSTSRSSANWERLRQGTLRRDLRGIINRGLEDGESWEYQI
Put plainly: Fluorescently tagged peptide on staged tumor tissue micro-arrays (Example 7). On the set-up: from tissue; host or cells: ovarian cancer tumour sections on tissue micro-arrays. The settings on record: Stage I to Stage IV tissue micro-arrays. As for the experimental part: Fluorescently tagged TRPV6-binding peptides are useful to determine the stage of a tumor by direct incubation of Tissue Micro-Arrays (TMA) with the peptide reagent. SorC27-cy5.5 compound is incubated with cells from a subject and fluorescence levels are compared to levels from control staged tumor samples.

Data set [2] relates to ovarian TRPV6-rich tumor (SKOV-3 cells). The experiment in a line: SorC27-cy5.5 in mice xenografted with SKOV-3 tumor (Example 9). The settings on record: SKOV-3 xenograft. Format: in vivo. As for the experimental part: Mice xenografted with an ovarian TRPV6-rich tumor (SKOV-3 cells) are injected with the fluorescently-labeled TRPV6-binding peptide SorC27-cy5.5.
Data set [3] has as its target T1, TRPV6. The experiment in a line: Co-localization of SorC27-cy5.5 and fluorescently labeled TRPV6 antibodies in cancer cell lines. The format is cell-based. The arrangement: endogenous in cells; host or cells: PC-3, T 47D, SKOV-3. The text has this: The level of TRPV6 immunofluorescence and SorC27-cy5.5 fluorescence are both increased in the transfected cells with increased TRPV6 expression shown in the B1-B3 series of FIG. 7 compared to the cells in the A1-A3 series of FIG. 7.
The level of TRPV6 immunofluorescence and SorC27-cy5.5 fluorescence are both increased in the transfected cells with greater TRPV6 expression shown in the B1-B3 series of FIG. 8 compared to the cells in the A1-A3 series of FIG. 8.
The level of TRPV6 immunofluorescence and SorC27-cy5.5 fluorescence are both increased the transfected cells with greater TRPV6 expression shown in the B1-B3 series of FIG. 9 compared to the cells in A1-A3 series of FIG. 9.

Data set [4] deals with TRPV6-rich ovarian (SKOV-3 cells) tumors. The experiment in a line: Localization of SorC27-cy5.5 to xenografted ovarian tumors in vivo (optical imaging). The arrangement: species or system nude CD1 mice. Particulars: 100 μg intraperitoneally, SKOV-3 ovarian xenograft. As to the method:
(§1) Mice xenografted with a TRPV6-rich ovarian (SKOV-3 cells) and prostate (DU145 cells) tumors were injected (intraperitoneally) with the fluorescently-labeled TRPV6-binding peptide SorC27-cy5.5. SorC27 was labeled with the near-infrared probe Cy5.5 at the single cysteine thiol using a Cy5.5 maleimide-activated reaction. The labeled peptides were purified with a combination of size exclusion chromatography and HPLC. Cy5.5, fluoresces in the infra-red region after excitation with a scanning laser. The low energy laser is able to penetrate the animal to about 1 cm and, thus, by scanning, the presence of the tagged peptides can be quantified in three dimensions. Cy5.5-labeled peptides were intraperitoneally injected into nude CD1 mice at 100 μg per animal, and animals were imaged live using an optical imaging system, Optix explorer (GE Healthcare Systems) at different time points (30 min, 90 min, 4 h).

Data set [5] relates to prostate (DU145 cells) tumors. The experiment in a line: Localization of SorC27-cy5.5 to xenografted prostate tumors in vivo (optical imaging). Particulars: 100 μg intraperitoneally, DU145 prostate xenograft. On the set-up: species or system nude CD1 mice. As for the experimental part: as §1
The target in data set [6] is T1, TRPV6. Put plainly: Co-localization with TRPV6 antibody in HEK-293 cells transfected with a TRPV6 expression vector. The format is cell-based. As for the experimental part:
HEK-293 cells were transfected with a TRPV6 expression vector and incubated with fluorescently labeled antibodies to the N-terminal peptides of TRPV6 as well as fluorescently labeled SorC27 (SorC27-cy5.5). HEK-293 cells that were not transfected with a TRPV6 expression vector were also incubated with fluorescently labeled anti-TRPV6 and SorC27-cy5.5 as a negative control (FIG. 6A).

Data set [7] is described as follows: Tissue distribution of Cy5.5-labeled peptides after i.v. injection, optical imaging. The format is in vivo, CD1 mice. From the text:
SorC13 and SorC27 were labeled with the near-infrared probe, Cy5.5. SorC13 was labeled at lysine-1 and lysine-8 with the infrared fluorescent probe cy5.5 through reaction with Cy5.5 NHS ester-activated process. SorC27 was labeled at the single cysteine thiol with Cy5.5 maleimide-activated reaction. The labeled peptides were purified with a combination of size exclusion chromatography and HPLC. The label, Cy5.5, fluoresces in the infra-red region after excitation with a scanning laser. The low energy laser is able to penetrate the animal to about 1 cm and, thus, by scanning prone and supine positions, the presence of the tagged peptides can be quantified in three dimensions.
Cy5.5-labeled peptides were intravenously injected into CD1 mice (4 for each compound) at 100 μg per animal in 100 μL, and animals were imaged live using an optical imaging system, Optix explorer (GE Healthcare Systems) at different time points (30 min, 90 min, 4 h). […] The bio-distribution of the labeled peptides in different organs and tissues were visualized and relatively quantified by optical imaging analysis. This protocol allows for visualization of the location of the labeled peptides and how the location changes over time. […] Nodes that accumulated the labeled peptides are indicated by line 1 (superfacial cervical nodes), line 4 (axillary nodes), line 5 (brachial nodes), line 8 (mesenteric nodes) and line 9 (inguinal nodes). FIGS. 2, 3 and 4 show the amounts of labeled peptides in various organs ex vivo.

Data set [8] addresses T1, TRPV6. Put plainly: Equilibrium dissociation constant (Kd) in an LNCaP model. The format is binding. On the set-up: endogenous in cells; host or cells: LNCaP. From the text: As noted above, a TRPV6-binding peptide of the invention will have calcium channel binding activity. The peptides having such activity are readily identified with any known assays suitable for measuring binding of the peptides with TRPV6. For example, in one embodiment, a peptide having calcium channel inhibition activity is optionally identified by determining that the peptide reduces calcium channel activity by reducing (i.e., partially or fully inhibiting) the flow of calcium through calcium channels. TRPV6-binding activity can also be measured using methods such as: internalized calcifluors (such as FURA-2 am); whole cell patch clamping to measure inhibition calcium currents electrophysiologically; equilibrium binding assays using peptides labeled with detectable tags such as radioactive or fluorescent tags; and/or NMR determination of ‘bound’ and ‘unbound’ peptides. In some embodiments, the TRPV6-binding peptides also have i) calcium channel blocking and ii) lack of paralytic activity.
Calcium channel binding activity is optionally identified by using a readily available cell line (e.g. human embryonic kidney cell lines-HEK293) transfected with an expression vector for TRPV6. Such transfected cells are readily aliquoted and stored (typically −80° C.) until required. […]

For orientation: Kd means the free concentration of one partner at which half of the binding sites on the other are occupied at equilibrium, for simple one-to-one binding. The low end stands for higher affinity, the high end for lower affinity.

Where no end group is shown, it is not given here. Cy5.5 maleimide = Cy5.5 label attached to cysteine thiol by maleimide-activated reaction

Regarding “SorC27-cy5.5: SorC27 labeled at the single cysteine thiol with Cy5.5 maleimide-activated reaction (EGKLSSNDTEGGLC(Cy5.5 maleimide)KEFLHPSKVDLPR)”, in the data set with TRPV6 [1], the “fluorescent signal with tumor stage” value was “increase in the intensity of the fluorescent signal”. Besides, the “detection of xenografted tumor by fluorescence” value in data set [2] is “detected in vivo”. The “SorC27-cy5.5 fluorescence in TRPV6-transfected versus non-transfected cells” value in the data set with TRPV6 [3] (PC-3), with TRPV6 [3] (SKOV-3) and with TRPV6 [3] (T 47D) was “increased” each time. The “co-localization with TRPV6 antibody” value with TRPV6 [3] (breast cancer cell line T 47D) is “co-localization of SorC27-cy5.5 and TRPV6”; with TRPV6 [3] (ovarian cancer cell line SKOV-3), “co-localization of SorC27-cy5.5 and TRPV6”; with TRPV6 [3] (prostate cancer cell line PC-3) it was “co-localization of SorC27-cy5.5 and TRPV6”. The “time tumor is clearly detected in vivo after injection” value in data set [4] and in data set [5] was “at least 24 hours” throughout. Further, the “fluorescence in non-transfected cells (negative control)” value with TRPV6 [6] (HEK293 cells not transfected with the TRPV6 expression vector) is given as “no fluorescence”. Moreover, the “binding to TRPV6 (co-localization with anti-TRPV6)” value in the data set with TRPV6 [6] (HEK-293 cells transfected with TRPV6 expression vector) was “bound to TRPV6”. Besides, the predominant tissue localization result in data set [7] (100 μg i.v., CD1 mice, imaging up to 4 h) was “localize predominantly in lymph nodes, lung, liver and kidney”. In addition, the “detectability in tissues after perfusion” value in data set [7] (24 hours, after perfusion to remove blood and lymph) was “still detectable in these tissues”. Also, the “accumulation in lymph nodes (superfacial cervical, axillary, branchial, mesenteric, inguinal)” value in data set [7] (four hours after i.v. injection of 100 μg) was “Significant accumulation”.
Consider HPSKVDLPR [SorC9, HPSKVDLPR], for which the Kd at TRPV6 [8] was ~90 nM.
